Test results published in patent publication US20150203577A1 (Chugai, published 2015).

B1: MB750 (antibody, mouse IgG1, kappa)
heavy: QVQLQESGPGLVKPSETLSLTCAVSGHSISHDHAWSWVRQPPGEGLEWIGFISYSGITNYNPSLQGRVTISRDNSKNTLYLQMNSLRAEDTAVYYCARSLARTTAMDYWGEGTLVTVSSAKTTPPSVYPLAPGSAAQTNSMVTLGCLVKGYFPEPVTVTWNSGSLSSGVHTFPAVLQSDLYTLSSSVTVPSSTWPSETVTCNVAHPASSTKVDKKIVPRDCGCKPCICEPNEVELVFIFPPKPKDVLTITLTPKVTCVVVDISKDDPEVQFSWFVDDVEVHTAQTQPREEQFNSTFRSVSELPIMHQDWLNGKEFKCRVNSDAFPAPIEKTISKTKGRPKAPQVYTIPPPKEQMAKDKVSLTCMITDFFPEDITVEWQWNGQPAENYKNTQPIMDTDGSYFVYSKLNVQKSNWEAGNTFTCSVLHEGLHNHHTEKSLSHSPGK
light: not shown
notes: CH name; VH H237 + CH, L chain MRAL-k0; copies: 2 + 2
B2: H237-MB642/MRAL-k0 (antibody, mouse IgG1, kappa)
heavy: QVQLQESGPGLVKPSETLSLTCAVSGHSISHDHAWSWVRQPPGEGLEWIGFISYSGITNYNPSLQGRVTISRDNSKNTLYLQMNSLRAEDTAVYYCARSLARTTAMDYWGEGTLVTVSSAKTTPPSVYPLAPGSAAQTNSMVTLGCLVKGYFPEPVTVTWNSGSLSSGVHTFPAVLQSDLYTLSSSVTVPSSTWPSETVTCNVAHPASSTKVDKKIVPRDCGCKPCICEDYEVEYVFIFPPKPKDVLTITLTPKVTCVVVDISKDDPEVQFSWFVDDVEVHTAQTQPREEQFNSTFRSVSELPIMHQDWLNGKEFKCRVNSAAFPAPIEKTISKTKGRPKAPQVYTIPPPKEQMAKDKVSLTCMITDFFPEDITVEWQWNGQPAENYKNTQPIMDTDGSYFVYSKLNVQKSNWEAGNTFTCSVLHEGLHNHHTEKSLSHSPGK
light: not shown
notes: mouse IgG1 CH variant; copies: 2 + 2
B3: MB749 (antibody, mouse IgG1, kappa)
heavy: QVQLQESGPGLVKPSETLSLTCAVSGHSISHDHAWSWVRQPPGEGLEWIGFISYSGITNYNPSLQGRVTISRDNSKNTLYLQMNSLRAEDTAVYYCARSLARTTAMDYWGEGTLVTVSSAKTTPPSVYPLAPGSAAQTNSMVTLGCLVKGYFPEPVTVTWNSGSLSSGVHTFPAVLQSDLYTLSSSVTVPSSTWPSETVTCNVAHPASSTKVDKKIVPRDCGCKPCICEPNEVELVFIFPPKPKDVLTITLTPKVTCVVVDISKDDPEVQFSWFVDDVEVHTAQTQPREELFNSTFRSVSELPIMHQDWLNGKEFKCRVNSAAFPAPIEKTISKTKGRPKAPQVYTIPPPKEQMAKDKVSLTCMITDFFPEDITVEWQWNGQPAENYKNTQPIMDTDGSYFVYSKLNVQKSNWEAGNTFTCSVLHEGLHNHHTEKSLSHSPGK
light: not shown
notes: as for B1
B4: H237-MB636/MRAL-k0 (antibody, mouse IgG1, kappa)
heavy: QVQLQESGPGLVKPSETLSLTCAVSGHSISHDHAWSWVRQPPGEGLEWIGFISYSGITNYNPSLQGRVTISRDNSKNTLYLQMNSLRAEDTAVYYCARSLARTTAMDYWGEGTLVTVSSAKTTPPSVYPLAPGSAAQTNSMVTLGCLVKGYFPEPVTVTWNSGSLSSGVHTFPAVLQSDLYTLSSSVTVPSSTWPSETVTCNVAHPASSTKVDKKIVPRDCGCKPCICEVYEVENVFIFPPKPKDVLTITLTPKVTCVVVDISKDDPEVQFSWFVDDVEVHTAQTQPREEQFNSTFRSVSELPIMHQDWLNGKEFKCRVNSAAFPAPIEKTISKTKGRPKAPQVYTIPPPKEQMAKDKVSLTCMITDFFPEDITVEWQWNGQPAENYKNTQPIMDTDGSYFVYSKLNVQKSNWEAGNTFTCSVLHEGLHNHHTEKSLSHSPGK
light: not shown
notes: as for B2
B5: MB751 (antibody, mouse IgG1, kappa)
heavy: QVQLQESGPGLVKPSETLSLTCAVSGHSISHDHAWSWVRQPPGEGLEWIGFISYSGITNYNPSLQGRVTISRDNSKNTLYLQMNSLRAEDTAVYYCARSLARTTAMDYWGEGTLVTVSSAKTTPPSVYPLAPGSAAQTNSMVTLGCLVKGYFPEPVTVTWNSGSLSSGVHTFPAVLQSDLYTLSSSVTVPSSTWPSETVTCNVAHPASSTKVDKKIVPRDCGCKPCICEPNEVELVFIFPPKPKDVLTITLTPKVTCVVVDISKDDPEVQFSWFVDDVEVHTAQTQPREEQFNSTFRSVSELPIMHQDWLNGKEFKCRVNSAAFPAPIERTISKTKGRPKAPQVYTIPPPKEQMAKDKVSLTCMITDFFPEDITVEWQWNGQPAENYKNTQPIMDTDGSYFVYSKLNVQKSNWEAGNTFTCSVLHEGLHNHHTEKSLSHSPGK
light: not shown
notes: as for B1
B6: MB752 (antibody, mouse IgG1, kappa)
heavy: QVQLQESGPGLVKPSETLSLTCAVSGHSISHDHAWSWVRQPPGEGLEWIGFISYSGITNYNPSLQGRVTISRDNSKNTLYLQMNSLRAEDTAVYYCARSLARTTAMDYWGEGTLVTVSSAKTTPPSVYPLAPGSAAQTNSMVTLGCLVKGYFPEPVTVTWNSGSLSSGVHTFPAVLQSDLYTLSSSVTVPSSTWPSETVTCNVAHPASSTKVDKKIVPRDCGCKPCICEPNEVELVFIFPPKPKDVLTITLTPKVTCVVVDISKDDPEVQFSWFVDDVEVHTAQTQPREEQFNLTFRSVSELPIMHQDWLNGKEFKCRVNSAAFPAPIEKTISKTKGRPKAPQVYTIPPPKEQMAKDKVSLTCMITDFFPEDITVEWQWNGQPAENYKNTQPIMDTDGSYFVYSKLNVQKSNWEAGNTFTCSVLHEGLHNHHTEKSLSHSPGK
light: not shown
notes: as for B1
B7: H237-MB657/MRAL-k0 (antibody, mouse IgG1, kappa)
heavy: QVQLQESGPGLVKPSETLSLTCAVSGHSISHDHAWSWVRQPPGEGLEWIGFISYSGITNYNPSLQGRVTISRDNSKNTLYLQMNSLRAEDTAVYYCARSLARTTAMDYWGEGTLVTVSSAKTTPPSVYPLAPGSAAQTNSMVTLGCLVKGYFPEPVTVTWNSGSLSSGVHTFPAVLQSDLYTLSSSVTVPSSTWPSETVTCNVAHPASSTKVDKKIVPRDCGCKPCICEPNEVEFVFIFPPKPKDVLTITLTPKVTCVVVDISKDDPEVQFSWFVDDVEVHTAQTQPREEQFNSTFRSVSELPIMHQDWLNGKEFKCRVNSAAFPAPIEKTISKTKGRPKAPQVYTIPPPKEQMAKDKVSLTCMITDFFPEDITVEWQWNGQPAENYKNTQPIMDTDGSYFVYSKLNVQKSNWEAGNTFTCSVLHEGLHNHHTEKSLSHSPGK
light: not shown
notes: as for B2
B8: MB748 (antibody, mouse IgG1, kappa)
heavy: QVQLQESGPGLVKPSETLSLTCAVSGHSISHDHAWSWVRQPPGEGLEWIGFISYSGITNYNPSLQGRVTISRDNSKNTLYLQMNSLRAEDTAVYYCARSLARTTAMDYWGEGTLVTVSSAKTTPPSVYPLAPGSAAQTNSMVTLGCLVKGYFPEPVTVTWNSGSLSSGVHTFPAVLQSDLYTLSSSVTVPSSTWPSETVTCNVAHPASSTKVDKKIVPRDCGCKPCICEPNEVELVFIFPPKPKDVLTITLTPKVTCVVVDIAKDDPEVQFSWFVDDVEVHTAQTQPREEQFNSTFRSVSELPIMHQDWLNGKEFKCRVNSAAFPAPIEKTISKTKGRPKAPQVYTIPPPKEQMAKDKVSLTCMITDFFPEDITVEWQWNGQPAENYKNTQPIMDTDGSYFVYSKLNVQKSNWEAGNTFTCSVLHEGLHNHHTEKSLSHSPGK
light: not shown
notes: as for B1

What was measured:
mouse FcγRII [1] = target: T1, mouse FcγRII (mouse, UniProt P08101 30-210); assay: SPR (Biacore T200); KD of H237-MB630/MRAL-k0 / KD of variant
T1 construct: Extracellular domain with C-terminal His tag; also called mFcγRII; mFcgRII
T1 sequence: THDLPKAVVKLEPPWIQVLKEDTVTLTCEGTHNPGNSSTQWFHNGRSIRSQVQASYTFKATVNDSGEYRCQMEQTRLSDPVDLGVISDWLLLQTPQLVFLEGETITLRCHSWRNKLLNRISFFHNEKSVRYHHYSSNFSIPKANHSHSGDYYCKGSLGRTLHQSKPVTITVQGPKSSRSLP
Excerpt: (§1) The antibody H chain variable region used was the variable region H237 (SEQ ID NO: 1) of the H chain VH3-IgG1 of the anti-IL-6 receptor antibody Fv4-IgG1 described in WO2009/125825. The antibody L chain commonly used was the L chain MRAL-k0 (SEQ ID NO: 2) of the anti-IL-6 receptor antibody tocilizumab. […] These variants were expressed and purified by the method of Reference Example 1 and evaluated for their binding to mFcγRII and mFcγRIII by the method of Reference Example 2 using Biacore T200.
(§2) Each altered antibody was analyzed for its interaction with each Fcγ receptor prepared above using Biacore T100 (GE Healthcare Japan Corp.), Biacore T200 (GE Healthcare Japan Corp.), Biacore A100, or Biacore 4000. The running buffer used was HBS-EP+ (GE Healthcare Japan Corp.). The assay temperature was set to 25° C. The sensor chips used were chips prepared by immobilizing Protein L (ACTIGEN or BioVision) onto Series S Sensor Chip CM5 (GE Healthcare Japan Corp.) or Series S Sensor Chip CM4 (GE Healthcare Japan Corp.) by the amine coupling method.
(§3) In order to calculate the KD value of each altered antibody for FcγR, kinetic analysis was conducted according to the following method: first, the antibody of interest was captured onto any of these chips and allowed to interact with mFcγR diluted with a running buffer. For the obtained sensorgram, the assay results were globally fit into the 1:1 Langmuir binding model using Biacore Evaluation Software to calculate an association rate constant ka (L/mol/s) and a dissociation rate constant kd (1/s). From these values, the dissociation constant KD (mol/L) was calculated.

mouse FcγRIII [2] = target: T2, mouse FcγRIII (mouse, UniProt P08508 31-215); assay: as above
T2 construct: Extracellular domain with C-terminal His tag; also called mFcγRIII; mFcgRIII
T2 chain: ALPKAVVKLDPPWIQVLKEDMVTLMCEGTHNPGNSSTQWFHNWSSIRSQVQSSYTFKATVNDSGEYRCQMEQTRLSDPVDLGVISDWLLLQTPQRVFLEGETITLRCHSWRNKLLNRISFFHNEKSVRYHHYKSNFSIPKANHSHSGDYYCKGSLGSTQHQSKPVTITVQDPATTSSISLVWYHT
Excerpt: as §1, §2, §3

mouse FcγRII [3] = target: T1, mouse FcγRII; assay: SPR (Biacore T200); KD of H237-mIgG1/MRAL-k0 / KD of variant
Excerpt: as §1, §2

mouse FcγRIII [4] = target: T2, mouse FcγRIII; assay: as above
Excerpt: as §1, §2

mouse FcγRIII [5] = target: T3, mouse FcγRIII (mouse, UniProt P08508 31-215); assay: SPR (Biacore), antibody captured on Protein L, mFcγR as analyte
T3 construct: also called mFcγRIII; mFcgRIII
T3 chain: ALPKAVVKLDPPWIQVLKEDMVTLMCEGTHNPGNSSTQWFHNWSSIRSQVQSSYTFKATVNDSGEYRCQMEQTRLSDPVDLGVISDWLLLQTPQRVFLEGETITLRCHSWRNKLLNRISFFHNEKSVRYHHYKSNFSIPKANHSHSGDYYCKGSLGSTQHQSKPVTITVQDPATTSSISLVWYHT
Method: as §2, §3

Row | Binder | Relative mFcγRII-binding activity (MB630 = 1) (mouse FcγRII [1]) | Relative mFcγRIII-binding activity (MB630 = 1) (mouse FcγRIII [2]) | relative mFcγRII-binding activity (mIgG1 = 1) (mouse FcγRII [3]) | relative mFcγRIII-binding activity (mIgG1 = 1) (mouse FcγRIII [4]) | relative mFcγRIII-binding activity (mIgG1 = 1) (mouse FcγRIII [5])
1 | B1 | 1.77 fold | 2.06 fold | 29.4 fold | 0.4 fold | 
2 | B2 |  |  |  |  | 0.1 fold
3 | B3 | 1.52 fold | 1.96 fold | 25.3 fold | 0.38 fold | 
4 | B4 |  |  |  |  | 0.17 fold
5 | B5 | 1.53 fold | 1.63 fold | 25.4 fold | 0.32 fold | 
6 | B6 | 0.36 fold | 0.44 fold | 6 fold | 0.09 fold | 
7 | B7 |  |  |  |  | 0.09 fold
8 | B8 | 0.7 fold | 0.7 fold | 11.7 fold | 0.14 fold | 
